For assay [1], the target named is T1, CD20 on CD19 and CD20-expressing Raji B cells (human, UniProt P11836 1-297).
T1 construct: whole, on cells
T1 sequence (looked up): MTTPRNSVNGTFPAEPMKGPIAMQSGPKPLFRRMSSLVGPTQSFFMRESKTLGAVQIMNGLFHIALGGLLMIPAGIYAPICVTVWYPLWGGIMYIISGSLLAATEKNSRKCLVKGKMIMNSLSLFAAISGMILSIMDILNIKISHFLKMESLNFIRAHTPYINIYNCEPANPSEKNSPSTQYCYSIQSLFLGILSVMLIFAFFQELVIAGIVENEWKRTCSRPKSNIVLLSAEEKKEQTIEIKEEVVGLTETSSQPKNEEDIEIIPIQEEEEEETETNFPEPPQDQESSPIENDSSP
Nature of the assay: FACS, Raji cells. On the technique in general: In flow cytometry, cells or beads pass a laser one at a time.

For assay [2], the target named is T2, CD3 on CD3-expressing T cells (Jurkat, HPB-ALL) (UniProt P07766 23-207).
T2 construct: whole, on cells; A multi-chain complex on cells; also called CD3 complex
Briefly: FACS, Jurkat cells.

B1: v6325, hybrid: aCD3-Teplizumab-hOKT3_Fab chain A and light chain / aCD20-Ofatumumab_scFvFc (VHVL) chain B (bispecific antibody, human IgG1, kappa)
chain 1: QVQLVQSGGGVVQPGRSLRLSCKASGYTFTRYTMHWVRQAPGKGLEWIGYINPSRGYTNYNQKVKDRFTISRDNSKNTAFLQMDSLRPEDTGVYFCARYYDDHYCLDYWGQGTPVTVSSASTKGPSVFPLAPSSKSTSGGTAALGCLVKDYFPEPVTVSWNSGALTSGVHTFPAVLQSSGLYSLSSVVTVPSSSLGTQTYICNVNHKPSNTKVDKKVEPKSCDKTHTCPPCPAPELLGGPSVFLFPPKPKDTLMISRTPEVTCVVVDVSHEDPEVKFNWYVDGVEVHNAKTKPREEQYNSTYRVVSVLTVLHQDWLNGKEYKCKVSNKALPAPIEKTISKAKGQPREPQVYVYPPSRDELTKNQVSLTCLVKGFYPSDIAVEWESNGQPENNYKTTPPVLDSDGSFALVSKLTVDKSRWQQGNVFSCSVMHEALHNHYTQKSLSLSPGK
chain 2: not shown
chain 3: DIQMTQSPSSLSASVGDRVTITCSASSSVSYMNWYQQTPGKAPKRWIYDTSKLASGVPSRFSGSGSGTDYTFTISSLQPEDIATYYCQQWSSNPFTFGQGTKLQITRTVAAPSVFIFPPSDEQLKSGTASVVCLLNNFYPREAKVQWKVDNALQSGNSQESVTEQDSKDSTYSLSSTLTLSKADYEKHKVYACEVTHQGLSSPVTKSFNRGEC
As a reminder, the Kd is the free concentration of one partner at which half of the binding sites on the other are occupied at equilibrium, for simple one-to-one binding. Read a high Kd as weaker binding. With B1, the “Bmax (OD450)” value in assay [1] is 6.44 OD450; in assay [2] it was 2.51 OD450. Besides, the Kd in assay [1] was determined as 11.9 nM; in assay [2] it was 1.58 nM.

B2: v5852, hybrid: aCD3-Teplizumab-hOKT3_Fab chain A and light chain / aCD19-MOR208_scFvFc (VHVL) chain B (bispecific antibody, human IgG1, kappa, L234A L235A)
chain 1: QVQLVQSGGGVVQPGRSLRLSCKASGYTFTRYTMHWVRQAPGKGLEWIGYINPSRGYTNYNQKVKDRFTISRDNSKNTAFLQMDSLRPEDTGVYFCARYYDDHYCLDYWGQGTPVTVSSASTKGPSVFPLAPSSKSTSGGTAALGCLVKDYFPEPVTVSWNSGALTSGVHTFPAVLQSSGLYSLSSVVTVPSSSLGTQTYICNVNHKPSNTKVDKKVEPKSCDKTHTCPPCPAPELLGGPSVFLFPPKPKDTLMISRTPEVTCVVVDVSHEDPEVKFNWYVDGVEVHNAKTKPREEQYNSTYRVVSVLTVLHQDWLNGKEYKCKVSNKALPAPIEKTISKAKGQPREPQVYVYPPSRDELTKNQVSLTCLVKGFYPSDIAVEWESNGQPENNYKTTPPVLDSDGSFALVSKLTVDKSRWQQGNVFSCSVMHEALHNHYTQKSLSLSPGK
chain 2: EVQLVESGGGLVKPGGSLKLSCAASGYTFTSYVMHWVRQAPGKGLEWIGYINPYNDGTKYNEKFQGRVTISSDKSISTAYMELSSLRSEDTAMYYCARGTYYYGTRVFDYWGQGTLVTVSSGGGGSGGGGSGGGGSDIVMTQSPATLSLSPGERATLSCRSSKSLQNVNGNTYLYWFQQKPGQSPQLLIYRMSNLNSGVPDRFSGSGSGTEFTLTISSLEPEDFAVYYCMQHLEYPITFGAGTKLEIKAAEPKSSDKTHTCPPCPAPEAAGGPSVFLFPPKPKDTLMISRTPEVTCVVVSVSHEDPEVKFNWYVDGVEVHNAKTKPREEQYNSTYRVVSVLTVLHQDWLNGKEYKCKVSNKALPAPIEKTISKAKGQPREPQVYVLPPSRDELTKNQVSLLCLVKGFYPSDIAVEWESNGQPENNYLTWPPVLDSDGSFFLYSKLTVDKSRWQQGNVFSCSVMHEALHNHYTQKSLSLSPGK
chain 3: DIQMTQSPSSLSASVGDRVTITCSASSSVSYMNWYQQTPGKAPKRWIYDTSKLASGVPSRFSGSGSGTDYTFTISSLQPEDIATYYCQQWSSNPFTFGQGTKLQITRTVAAPSVFIFPPSDEQLKSGTASVVCLLNNFYPREAKVQWKVDNALQSGNSQESVTEQDSKDSTYSLSSTLTLSKADYEKHKVYACEVTHQGLSSPVTKSFNRGEC
In the case of B2, in assay [2], the “Bmax (OD450)” value worked out at 2.21 OD450 and binding was characterised by a dissociation constant (Kd) of 25.2 nM.

B3: v5850, hybrid: aCD3-BiTEx_I2C_scFvFc (VHVL) chain A / aCD20-Ofatumumab_Fab chain B and light chain (bispecific antibody)
chain 1: not shown
chain 2: not shown
chain 3: not shown
As for B3, in assay [1], the “Bmax (OD450)” value is 4.24 OD450 and the affinity, expressed as Kd, was 3.6 nM.

B4: v1821, common light chain: aCD3-12F6_Fab chain A / aCD20-Rituximab_Fab chain B, Rituximab light chain (bispecific antibody, human IgG1, kappa)
chain 1: QVQLVQSGGGVVQPGRSLRLSCKASGYTFTSYTMHWVRQAPGKGLEWIGYINPSSGYTKYNQKFKDRFTISADKSKSTAFLQMDSLRPEDTGVYFCARWQDYDVYFDYWGQGTPVTVSSASTKGPSVFPLAPSSKSTSGGTAALGCLVKDYFPEPVTVSWNSGALTSGVHTFPAVLQSSGLYSLSSVVTVPSSSLGTQTYICNVNHKPSNTKVDKKVEPKSCDKTHTCPPCPAPELLGGPSVFLFPPKPKDTLMISRTPEVTCVVVDVSHEDPEVKFNWYVDGVEVHNAKTKPREEQYNSTYRVVSVLTVLHQDWLNGKEYKCKVSNKALPAPIEKTISKAKGQPREPQVYVYPPSRDELTKNQVSLTCLVKGFYPSDIAVEWESNGQPENNYKTTPPVLDSDGSFALVSKLTVDKSRWQQGNVFSCSVMHEALHNHYTQKSLSLSPGK
chain 2: not shown
chain 3: QIVLSQSPAILSASPGEKVTMTCRASSSVSYIHWFQQKPGSSPKPWIYATSNLASGVPVRFSGSGSGTSYSLTISRVEAEDAATYYCQQWTSNPPTFGGGTKLEIKRTVAAPSVFIFPPSDEQLKSGTASVVCLLNNFYPREAKVQWKVDNALQSGNSQESVTEQDSKDSTYSLSSTLTLSKADYEKHKVYACEVTHQGLSSPVTKSFNRGEC
notes: The single light chain is shared by both Fabs
In the case of B4, in assay [1], the “Bmax (OD450)” value worked out at 4.71 OD450 and binding was characterised by a dissociation constant (Kd) of 122 nM. For the same molecule, in assay [2], the “Bmax (OD450)” value was 2.11 OD450 and the Kd came to 182 nM.

B5: v1823, common light chain: aCD3-12F6_Fab chain A / aCD20-Tositumumab_Fab chain B, Tositumumab light chain (bispecific antibody, human IgG1, kappa)
chain 1: QVQLVQSGGGVVQPGRSLRLSCKASGYTFTSYTMHWVRQAPGKGLEWIGYINPSSGYTKYNQKFKDRFTISADKSKSTAFLQMDSLRPEDTGVYFCARWQDYDVYFDYWGQGTPVTVSSASTKGPSVFPLAPSSKSTSGGTAALGCLVKDYFPEPVTVSWNSGALTSGVHTFPAVLQSSGLYSLSSVVTVPSSSLGTQTYICNVNHKPSNTKVDKKVEPKSCDKTHTCPPCPAPELLGGPSVFLFPPKPKDTLMISRTPEVTCVVVDVSHEDPEVKFNWYVDGVEVHNAKTKPREEQYNSTYRVVSVLTVLHQDWLNGKEYKCKVSNKALPAPIEKTISKAKGQPREPQVYVYPPSRDELTKNQVSLTCLVKGFYPSDIAVEWESNGQPENNYKTTPPVLDSDGSFALVSKLTVDKSRWQQGNVFSCSVMHEALHNHYTQKSLSLSPGK
chain 2: not shown
chain 3: QIVLSQSPAILSASPGEKVTMTCRASSSVSYMHWYQQKPGSSPKPWIYAPSNLASGVPARFSGSGSGTSYSLTISRVEAEDAATYYCQQWSFNPPTFGAGTKLELKRTVAAPSVFIFPPSDEQLKSGTASVVCLLNNFYPREAKVQWKVDNALQSGNSQESVTEQDSKDSTYSLSSTLTLSKADYEKHKVYACEVTHQGLSSPVTKSFNRGEC
notes: as for B4
For the molecule B5, in assay [2], the “Bmax (OD450)” value was 0.88 OD450 and the Kd is 68.8 nM.

B6: v1813, common light chain: aCD3-foralumab_Fab chain A / aCD20-Ofatumumab_Fab chain B, Ofatumumab light chain (bispecific antibody, human IgG1, kappa)
chain 1: not shown
chain 2: not shown
chain 3: not shown
notes: as for B4
On to B6, for which, in assay [1], the “Bmax (OD450)” value was determined as 6.4 OD450 and binding was put at a Kd of 4.04 nM. Besides, in assay [2], the “Bmax (OD450)” value turned out to be 2.54 OD450 and the Kd stood at 691 nM.

The values above are taken from US20240343802A1 (Zymeworks, published 2024).
